Results on two molecules are retold here after publication PMC9512702 (2022).

The koff is a measure of how fast the partners let go of each other. The low end stands for a long-lived complex, the high end for a short-lived complex.

Assay [1] deals with T1, mammalian expressed RBD (mRBD) of SARS-CoV-2 spike (SARS-CoV-2, UniProt P0DTC2 319-541). Briefly: SPR. (In general: In SPR one partner is held on a chip, and binding of the other changes the refractive index at the surface.)
Assay [2] addresses T1, mammalian expressed RBD (mRBD) of …. Briefly: SPR. The source holds these as a separate data set.

Like-named read-outs stand apart in the source and are kept apart here.

B1: SIH-14 (designed binder)
chain: DKEWILQKIYEAMRLLDELADAEASMRVSDAIYEFMKK
Take B1: the off-rate constant (koff) in assay [1] is 0.00028 s⁻¹.

B2: SIH-15 (designed binder)
chain: DKEWILQKIYEEMRLLDELADAEASMRVSDEIYEFMKK
For B2, the koff in assay [2] worked out at 0.00025 s⁻¹.
